Non-standard residues stand in square brackets, D forms with d. No end group written: not given here. pT = C[C@@H](OP(=O)(O)O)[C@H](N)C(=O)O; FAM = 5,6-carboxyfluorescein

The target in the experiment is T1, Rtt103p CID Q19A (Saccharomyces cerevisiae).
T1 chain: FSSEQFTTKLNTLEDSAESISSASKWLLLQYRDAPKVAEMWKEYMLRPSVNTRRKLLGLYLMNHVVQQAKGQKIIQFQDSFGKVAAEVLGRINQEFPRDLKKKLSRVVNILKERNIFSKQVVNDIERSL
Briefly: FP.

Usually Kd stands for the concentration at which binding is half-saturated. A high value points to weaker binding. Molecule {FAM}-PSYSP[pT]SPSYSPTSPS [FAM-PSYSP(pT)SPSYSPTSPS] registered a Kd of 48 µM.
